In patent US20230399384A1:
Read-outs that look alike come from different tables or passages of the source.

Assays:
Conditions in all cases: remark: other sources report otherwise
[1] = biological target: T1, sCoV2-RBD (Fc-tagged RBD of SARS-CoV-2 S protein) (SARS-CoV-2; human), P0DTC2
[2] = biological target: T1, sCoV2-RBD (Fc-tagged RBD of SARS-CoV-2 …); experiment: BLI (Octet) blocking of ACE2 binding to captured sCoV2-RBD
[3] = biological target: T1, sCoV2-RBD (Fc-tagged RBD of SARS-CoV-2 …); experiment: ELISA titration on coated sCoV2-RBD
[4] = biological target: trimeric prefusion S protein of SARS-CoV-2 (SARS-CoV-2), P0DTC2

B1: CoV2-16 (antibody, V domains shown)
VH: QVQLHQWGAGLLKPSETLSRTCAVYGGSFSGYYWTWIRQAPGKGLEWIGEINHGGSTRYNPSLESRVSISVDTSKKQFSLELRSVTAADTAIYYCARGYDTNWYGDGYNWFDPWDRGTLVTVSS
VL: QAVVTQPPSVSGTPGQRVTISCSGSSSSIGSNTVHWYQHLPGTAPKLLMYNNNERPSGVPARFSGSKSGTSASLVITGLQADDEAEYYCQSYDTGLSGHVFGSGTELTVL
[1]
  EC50: 7.77 nM
[2]
  IC50: 6.9 µg/mL
[3]
  EC50: 7.77 nM
[4]
  Kd: 5.35 nM

B2: CoV2-09 (antibody, V domains shown)
VH: QVQLHQWGAGLLKPSETLSRTCAVYGGSFSGYYWTWIRQAPGKGLEWIGEINHGGSTRYNPSLESRVSISVDTSKKQFSLELRSVTAADTAIYYCARGYDTNWYGDGYNWFDPWDRGTLVTVSS
VL: QSALTQDPSVSVALGQTVRITCQGDSLRGSFASWYRQKPGQAPVLVIFGINNRPSGVPDRFSGSSSGNTASLTITGAQAEDEADYYCNSRESNSNRILFGGGTKVTVL
[2]
  IC50: 3.54 µg/mL
[4]
  Kd: 0.94 nM
